Results from US20140037626A1, “Metal Abstraction Peptide With Release of Metal” (Echogen, Inc., priority 2012, published 2014).
Ends that are not written are not given here.

What was measured:
[1] = pH-dependent release of nickel from MAP peptides by absorption spectroscopy; format: physicochemical; conditions: FIG. 9; intensity at 415 nm with decreasing pH
Method: The loss of absorbance intensity corresponds to loss of metal from the complex, as the absorption features that are observed for Ni-MAP are due to ligand to metal charge transfer (LMCT) bands and d to d transitions. By monitoring the intensity of one specific peak (415 nm for the pentapteptide) with decreasing pH, the percent of the complex remaining at each pH unit was calculated and plotted (FIG. 9).
pH release experiments were then performed (FIG. 16), and release curves were prepared for each of the six peptides (FIG. 17).

[2] = pH-dependent release of platinum from MAP peptides (absorption, NMR, MS); format: physicochemical; conditions: low pH (pH 2.47 with excess ammonium chloride in FIG. 10)
Method: Because Pt is bound to ammonia and chloride ligands in the common inorganic complex cisplatin, the release experiment was also performed in the presence of excess ammonium chloride. […] Additionally, ^1H NMR of the GGNCC (SEQ ID NO.:1), and Pt-GGNCC (SEQ ID NO.:1) at low pH were all performed.
MS data was obtained at low pH when solvent (DMSO) was added to the peptide-metal complex before dropping the pH, to keep some of the species that result from metal release soluble. Although a small amount of a yellow precipitate formed, the peptide returned to the apo state and remained in solution as determined by MS (FIG. 12). By adding DMSO to the solution, a similar release experiment was performed using absorption spectroscopy. […] The loss of absorbance intensity corresponded to loss of metal from the complex. The loss of intensity was monitored at 315 nm, as this is a significant, yet unique, feature in the Pt-NCC spectral profile, and pH dependent release curve was prepared (FIG. 13).

Row | Substance | pH range in which pH-dependent release of nickel occurs rapidly [1] | precipitation of the Pt-peptide complex at low pH [2]
1 | GNNCC: nickel complex of the pentapeptide GNNCC (SEQ ID NO.:2) (cysteine pairing not given here; also: nickel complex) | 6-7 pH | –
2 | Pt-GGNCC: platinum complex of the pentapeptide GGNCC (SEQ ID NO.:1) (cysteine pairing not given here; also: platinum complex) | – | Precipitation occurred
